We go through 3 substances from article PMC12017984.

Experiment [1] deals with Recombinant human apolipoprotein A-IV, apoA-IV^WT, His tag-free (human) (UniProt P06727). Put plainly: ITC. (In ITC the heat of successive injections is recorded.)
Experiment [2] has as its target Recombinant human apolipoprotein A-IV, apoA-IV^T347S, His tag-free (human) (UniProt P06727). Description: ITC.
Experiment [3] addresses Recombinant His-tagged human apolipoprotein A-IV, apoA-IV^T347S (human) (UniProt P06727). Description: BLI. Background: In BLI a coated tip is dipped into the sample, and binding shifts an interference pattern.

Regarding “Recombinant human apolipoprotein A-IV, apoA-IV^WT, His tag-free (from UniProt P06727 21-396) (natural protein)”, in experiment [1], the Kd1 is 0.63 µM, the Kd2 is 54 nM, the dH1 is 2.7 kcal/mol and the dH2 was -27 kcal/mol.

As a reminder, the Kd is the free concentration of one partner at which half of the binding sites on the other are occupied at equilibrium, for simple one-to-one binding. Turning to “Recombinant human apolipoprotein A-IV, apoA-IV^T347S, His tag-free (from UniProt P06727 21-396) (natural protein)”, in experiment [2], the Kd turned out to be 102 µM and the dH is -34 kcal/mol.

As to “Human platelet integrin αIIbβ3 (from UniProt P05106 27-788) (receptor)”, the Kd in experiment [3] amounted to 0.397 µM.
